Assay results taken from patent US20230250154A1 (CYTONICS, published 2023).

T1: ADAMTS5 (human, UniProt Q9UNA0 262-622, limits assumed)
T1 sequence (looked up): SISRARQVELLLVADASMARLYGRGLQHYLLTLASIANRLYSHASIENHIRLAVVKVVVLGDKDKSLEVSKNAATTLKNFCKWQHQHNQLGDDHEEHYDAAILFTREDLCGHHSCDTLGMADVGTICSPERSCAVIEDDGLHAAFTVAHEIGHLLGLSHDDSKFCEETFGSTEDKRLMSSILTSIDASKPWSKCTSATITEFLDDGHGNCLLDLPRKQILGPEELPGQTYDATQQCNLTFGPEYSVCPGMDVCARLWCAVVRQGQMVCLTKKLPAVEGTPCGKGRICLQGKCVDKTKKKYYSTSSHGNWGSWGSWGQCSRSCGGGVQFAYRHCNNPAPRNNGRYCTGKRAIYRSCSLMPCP

T2: MMP1 (human, UniProt P03956 100-469, limits assumed)
T2 sequence (looked up): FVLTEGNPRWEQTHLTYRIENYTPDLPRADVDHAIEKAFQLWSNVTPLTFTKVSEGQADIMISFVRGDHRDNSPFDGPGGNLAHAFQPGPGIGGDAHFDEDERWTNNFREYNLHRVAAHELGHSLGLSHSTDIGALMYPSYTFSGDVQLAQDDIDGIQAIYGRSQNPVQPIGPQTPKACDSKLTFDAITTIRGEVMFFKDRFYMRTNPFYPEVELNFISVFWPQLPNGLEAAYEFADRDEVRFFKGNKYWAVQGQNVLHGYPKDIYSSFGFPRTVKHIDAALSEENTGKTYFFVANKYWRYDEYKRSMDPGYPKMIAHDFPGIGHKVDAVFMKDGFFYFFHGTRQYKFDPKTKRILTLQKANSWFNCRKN

T3: MMP2 (human, UniProt P08253 110-660, limits assumed)
T3 sequence (looked up): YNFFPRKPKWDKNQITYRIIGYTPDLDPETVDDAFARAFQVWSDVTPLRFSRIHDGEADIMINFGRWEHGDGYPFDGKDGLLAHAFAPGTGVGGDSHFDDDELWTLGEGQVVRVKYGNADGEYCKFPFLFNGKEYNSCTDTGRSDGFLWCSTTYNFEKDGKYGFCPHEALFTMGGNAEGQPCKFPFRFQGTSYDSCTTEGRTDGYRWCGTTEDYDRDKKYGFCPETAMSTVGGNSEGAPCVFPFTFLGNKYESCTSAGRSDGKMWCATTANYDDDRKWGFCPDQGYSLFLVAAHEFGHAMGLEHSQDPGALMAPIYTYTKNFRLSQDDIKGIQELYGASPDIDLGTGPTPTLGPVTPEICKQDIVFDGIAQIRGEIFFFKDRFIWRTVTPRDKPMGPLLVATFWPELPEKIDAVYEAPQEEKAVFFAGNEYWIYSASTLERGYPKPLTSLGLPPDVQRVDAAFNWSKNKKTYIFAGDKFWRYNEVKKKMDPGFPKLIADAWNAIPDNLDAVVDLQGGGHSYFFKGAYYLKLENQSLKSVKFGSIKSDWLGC

T4: Cathepsin G (UniProt P08311 21-244)
T4 sequence (looked up): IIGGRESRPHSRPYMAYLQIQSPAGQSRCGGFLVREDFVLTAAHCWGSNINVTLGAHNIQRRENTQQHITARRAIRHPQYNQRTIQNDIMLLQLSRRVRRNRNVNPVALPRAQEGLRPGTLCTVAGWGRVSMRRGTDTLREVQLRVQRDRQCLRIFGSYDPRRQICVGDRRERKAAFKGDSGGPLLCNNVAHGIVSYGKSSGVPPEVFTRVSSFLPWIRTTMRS

T5: MMP7 (UniProt P09237 95-267, limits assumed)
T5 sequence (looked up): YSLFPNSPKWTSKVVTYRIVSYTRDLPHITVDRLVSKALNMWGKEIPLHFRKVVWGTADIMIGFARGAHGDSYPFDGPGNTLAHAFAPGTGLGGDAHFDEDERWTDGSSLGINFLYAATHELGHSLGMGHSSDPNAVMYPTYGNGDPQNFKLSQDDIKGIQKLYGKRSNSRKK

B1: Variant A2M, bait region SEQ ID NO 16 (other)
chain: SVSGKPQYMVLVPSLLHTETTEKGCVLLSYLNETVTVSASLESVRGNRSLFTDLEAENDVLHCVAFAVPKSSSNEEVMFLTVQVKGPTQEFKKRTTVMVKNEDSLVFVQTDKSIYKPGQTVKFRVVSMDENFHPLNELIPLVYIQDPKGNRIAQWQSFQLEGGLKQFSFPLSSEPFQGSYKVVVQKKSGGRTEHPFTVEEFVLPKFEVQVTVPKIITILEEEMNVSVCGLYTYGKPVPGHVTVSICRKYSDASDCHGEDSQAFCEKFSGQLNSHGCFYQQVKTKVFQLKRKEYEMKLHTEAQIQEEGTVVELTGRQSSEITRTITKLSFVKVDSHFRQGIPFFGQVRLVDGKGVPIPNKVIFIRGNEANYYSNATTDEHGLVQFSINTTNVMGTSLTVRVNYKDRSPCYGYQWVSEEHEEAHHTAYLVFSPSKSFVHLEPMSHELPCGHTQTVQAHYILNGGTLLGLKKLSFYYLIMAKGGIVRTGTHGLLVKQEDMKGHFSISIPVKSDIAPVARLLIYAVLPTGDVIGDSAKYDVENCLANKVDLSFSPSQSLPASHAHLRVTAAPQSVCALRAVDQSVLLMKPDAELSASSVYNLLPEKDLTGFPGPLNDQDDEDCINRHNVYINGITYTPVSSTNEKDMYSFLEDMGLKAFTNSKIRKPKMCPQLEHGPEFRGVTRYLTAIPENFYGVSELEGRGSSEDLVVQIVEEPHTKLRKYFPETWIWDLVVVNSAGVAEVGVTVPDTITEWKAGAFCLSEDAGLGISSTASLRAFQPFFVELTMPYSVIRGEAFTLKATVLNYLPKCIRVSVQLEASPAFLAVPVEKEQAPHCICANGRQTVSWAVTPKSLGNVNFTVSAEALESQELCGTEVPSVPEHGRKDTVIKPLLVEPEGLEKETTFNSLLCPSGGEVSEELSLKLPPNVVEESARASVSVLGDILGSAMQNTQNLLQMPYGCGEQNMVLFAPNIYVLDYLNETQQLTPEIKSKAIGYLNTGYQRQLNYKHYDGSYSTFGERYGRNQGNTWLTAFVLKTFAQARAYIFIDEAHITQALIWLSQRQKDNGCFRSSGSLLNNAIKGGVEDEVTLSAYITIALLEIPLTVTHPVVRNALFCLESAWKTAQEGDHGSHVYTKALLAYAFALAGNQDKRKEVLKSLNEEAVKKDNSVHWERPQKPKAPVGHFYEPQAPSAEVEMTSYVLLAYLTAQPAPTSEDLTSATNIVKWITKQQNAQGGFSSTQDTVVALHALSKYGAATFTRTGKAAQVTIQSSGTFSSKFQVDNNNRLLLQQVSLPELPGEYSMKVTGEGCVYLQTSLKYNILPEKEEFPFALGVQTLPQTCDEPKAHTSFQISLSVSYTGSRSASNMAIVDVKMVSGFIPLKPTVKMLERSNHVSRTEVSSNHVLIYLDKVSNQTLSLFFTVLQDVPVRDLKPAIVKVYDYYETDEFAIAEYNAPCSKDLGNADYKDDDDKGASHHHHHH
B2: Variant A2M, bait region SEQ ID NO 18 (other)
chain: SVSGKPQYMVLVPSLLHTETTEKGCVLLSYLNETVTVSASLESVRGNRSLFTDLEAENDVLHCVAFAVPKSSSNEEVMFLTVQVKGPTQEFKKRTTVMVKNEDSLVFVQTDKSIYKPGQTVKFRVVSMDENFHPLNELIPLVYIQDPKGNRIAQWQSFQLEGGLKQFSFPLSSEPFQGSYKVVVQKKSGGRTEHPFTVEEFVLPKFEVQVTVPKIITILEEEMNVSVCGLYTYGKPVPGHVTVSICRKYSDASDCHGEDSQAFCEKFSGQLNSHGCFYQQVKTKVFQLKRKEYEMKLHTEAQIQEEGTVVELTGRQSSEITRTITKLSFVKVDSHFRQGIPFFGQVRLVDGKGVPIPNKVIFIRGNEANYYSNATTDEHGLVQFSINTTNVMGTSLTVRVNYKDRSPCYGYQWVSEEHEEAHHTAYLVFSPSKSFVHLEPMSHELPCGHTQTVQAHYILNGGTLLGLKKLSFYYLIMAKGGIVRTGTHGLLVKQEDMKGHFSISIPVKSDIAPVARLLIYAVLPTGDVIGDSAKYDVENCLANKVDLSFSPSQSLPASHAHLRVTAAPQSVCALRAVDQSVLLMKPDAELSASSVYNLLPEKDLTGFPGPLNDQDDEDCINRHNVYINGITYTPVSSTNEKDMYSFLEDMGLKAFTNSKIRKPKMCPQLEHGPIPENFYGLEGEGEGEGEAIPMSIPRYLTAEFRGVTVEEPHTKLRKYFPETWIWDLVVVNSAGVAEVGVTVPDTITEWKAGAFCLSEDAGLGISSTASLRAFQPFFVELTMPYSVIRGEAFTLKATVLNYLPKCIRVSVQLEASPAFLAVPVEKEQAPHCICANGRQTVSWAVTPKSLGNVNFTVSAEALESQELCGTEVPSVPEHGRKDTVIKPLLVEPEGLEKETTFNSLLCPSGGEVSEELSLKLPPNVVEESARASVSVLGDILGSAMQNTQNLLQMPYGCGEQNMVLFAPNIYVLDYLNETQQLTPEIKSKAIGYLNTGYQRQLNYKHYDGSYSTFGERYGRNQGNTWLTAFVLKTFAQARAYIFIDEAHITQALIWLSQRQKDNGCFRSSGSLLNNAIKGGVEDEVTLSAYITIALLEIPLTVTHPVVRNALFCLESAWKTAQEGDHGSHVYTKALLAYAFALAGNQDKRKEVLKSLNEEAVKKDNSVHWERPQKPKAPVGHFYEPQAPSAEVEMTSYVLLAYLTAQPAPTSEDLTSATNIVKWITKQQNAQGGFSSTQDTVVALHALSKYGAATFTRTGKAAQVTIQSSGTFSSKFQVDNNNRLLLQQVSLPELPGEYSMKVTGEGCVYLQTSLKYNILPEKEEFPFALGVQTLPQTCDEPKAHTSFQISLSVSYTGSRSASNMAIVDVKMVSGFIPLKPTVKMLERSNHVSRTEVSSNHVLIYLDKVSNQTLSLFFTVLQDVPVRDLKPAIVKVYDYYETDEFAIAEYNAPCSKDLGNADYKDDDDKGASHHHHHH

Experiments:
Test in all cases: cell-based or functional assay
ADAMTS5 = molecular target: T1, ADAMTS5
MMP1 = molecular target: T2, MMP1
MMP8 = MMP8 (human, UniProt P22894 101-467, limits assumed)
MMP13 = MMP13 (human, UniProt P45452 104-471, limits assumed)
MMP2 = molecular target: T3, MMP2
MMP9 = MMP9 (human, UniProt P14780 107-707, limits assumed)
MMP3 = MMP3 (human, UniProt P08254 100-477, limits assumed)
Elastase = molecular target: Elastase
Cathepsin G = molecular target: T4, Cathepsin G
MMP7 = molecular target: T5, MMP7

Sequence of MMP9 (P14780 107-707 limits assumed): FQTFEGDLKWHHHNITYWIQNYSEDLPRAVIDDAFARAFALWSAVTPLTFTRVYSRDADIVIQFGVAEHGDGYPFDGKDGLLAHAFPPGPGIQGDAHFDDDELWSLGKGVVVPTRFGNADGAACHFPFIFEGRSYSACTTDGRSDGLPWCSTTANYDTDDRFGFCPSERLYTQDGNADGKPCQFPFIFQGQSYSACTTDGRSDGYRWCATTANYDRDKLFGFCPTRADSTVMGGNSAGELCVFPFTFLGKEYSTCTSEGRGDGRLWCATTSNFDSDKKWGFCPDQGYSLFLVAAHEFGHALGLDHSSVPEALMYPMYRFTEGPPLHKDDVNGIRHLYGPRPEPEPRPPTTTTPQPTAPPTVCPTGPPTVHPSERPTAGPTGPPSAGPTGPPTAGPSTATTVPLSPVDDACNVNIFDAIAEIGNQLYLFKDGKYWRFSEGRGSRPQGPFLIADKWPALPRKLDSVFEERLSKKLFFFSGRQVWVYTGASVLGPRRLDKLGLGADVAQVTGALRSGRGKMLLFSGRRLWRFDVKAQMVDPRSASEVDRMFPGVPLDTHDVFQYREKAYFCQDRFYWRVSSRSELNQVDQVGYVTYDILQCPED
Sequence of MMP3 (P08254 100-477 limits assumed): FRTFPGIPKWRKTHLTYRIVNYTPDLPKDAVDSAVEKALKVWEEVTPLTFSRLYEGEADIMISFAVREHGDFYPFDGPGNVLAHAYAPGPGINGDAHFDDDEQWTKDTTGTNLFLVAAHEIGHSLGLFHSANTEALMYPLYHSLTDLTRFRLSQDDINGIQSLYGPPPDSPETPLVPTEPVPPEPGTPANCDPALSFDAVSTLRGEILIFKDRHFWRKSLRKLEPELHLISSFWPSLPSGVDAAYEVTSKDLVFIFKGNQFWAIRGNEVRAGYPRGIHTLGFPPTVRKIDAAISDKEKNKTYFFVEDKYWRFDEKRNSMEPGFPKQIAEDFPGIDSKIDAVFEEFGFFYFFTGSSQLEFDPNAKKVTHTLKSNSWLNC
Sequence of MMP8 (P22894 101-467 limits assumed): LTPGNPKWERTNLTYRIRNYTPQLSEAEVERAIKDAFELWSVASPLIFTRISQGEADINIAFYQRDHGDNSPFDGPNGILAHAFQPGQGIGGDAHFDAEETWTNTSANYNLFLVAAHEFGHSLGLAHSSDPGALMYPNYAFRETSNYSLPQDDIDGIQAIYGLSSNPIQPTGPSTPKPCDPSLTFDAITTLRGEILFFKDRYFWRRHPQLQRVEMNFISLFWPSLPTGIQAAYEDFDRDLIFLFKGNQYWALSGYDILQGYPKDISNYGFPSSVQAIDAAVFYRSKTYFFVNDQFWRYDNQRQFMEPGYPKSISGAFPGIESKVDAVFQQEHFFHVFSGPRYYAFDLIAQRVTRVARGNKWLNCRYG

Row | Binder | Protease Inhibition (% of WT) (ADAMTS5) | Protease Inhibition (% of WT) (MMP1) | Protease Inhibition (% of WT) (MMP8) | Protease Inhibition (% of WT) (MMP13) | Protease Inhibition (% of WT) (MMP2) | Protease Inhibition (% of WT) (MMP9) | Protease Inhibition (% of WT) (MMP3) | Protease Inhibition (% of WT) (Elastase) | Protease Inhibition (% of WT) (Cathepsin G) | Protease Inhibition (% of WT) (MMP7)
1 | B1 | 305 % of WT | 101 % of WT | 92 % of WT | 104 % of WT | 92 % of WT | 84 % of WT | 180 % of WT | 91 % of WT | 105 % of WT | 105 % of WT
2 | B2 | 154 % of WT | 91 % of WT | 82 % of WT | 117 % of WT | 58 % of WT | 53 % of WT | 38 % of WT | 86 % of WT | 83 % of WT | 102 % of WT
